Ends that are not written are not given here.

The target in one test is T1, HUWE1 (3759–4374) (human, UniProt Q7Z6Z7 3759-4374).
T1 construct: also called extended C-terminal HUWE1 fragment; source: LOBSTR RIL cells, purified (IMAC, gel filtration)
T1 sequence (looked up): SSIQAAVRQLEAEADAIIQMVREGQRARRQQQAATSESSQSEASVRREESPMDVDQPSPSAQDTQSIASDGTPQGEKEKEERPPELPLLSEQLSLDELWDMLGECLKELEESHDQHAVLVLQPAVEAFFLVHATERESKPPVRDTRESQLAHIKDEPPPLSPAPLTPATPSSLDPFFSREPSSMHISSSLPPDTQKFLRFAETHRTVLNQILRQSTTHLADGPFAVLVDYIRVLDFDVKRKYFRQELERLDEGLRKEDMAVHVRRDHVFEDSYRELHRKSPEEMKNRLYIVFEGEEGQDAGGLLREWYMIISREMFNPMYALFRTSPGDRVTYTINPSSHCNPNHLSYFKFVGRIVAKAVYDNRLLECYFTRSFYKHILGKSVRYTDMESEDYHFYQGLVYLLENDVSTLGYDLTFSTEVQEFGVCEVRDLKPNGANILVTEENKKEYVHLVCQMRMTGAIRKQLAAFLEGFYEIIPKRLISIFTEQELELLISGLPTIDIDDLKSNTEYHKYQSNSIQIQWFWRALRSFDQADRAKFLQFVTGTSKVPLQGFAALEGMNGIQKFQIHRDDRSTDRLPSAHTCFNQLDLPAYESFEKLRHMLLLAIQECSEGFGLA
Kind of test: fluorescence polarisation; apparent KD; constant 1 μM TAMRA-labelled p14ARF (45–64) peptide titrated with HUWE1 protein; 25°C, 20 mM HEPES pH 8.0, 150 mM NaCl, 10% glycerol, 1 mM EDTA, 5 mM DTT; three independent experiments. The note with it: both partners purified.

The next test has as its target T2, HUWE1 (3810–4374) (human, UniProt Q7Z6Z7 3810-4374).
T2 construct: source: LOBSTR RIL cells, purified (IMAC, gel filtration)
T2 sequence (looked up): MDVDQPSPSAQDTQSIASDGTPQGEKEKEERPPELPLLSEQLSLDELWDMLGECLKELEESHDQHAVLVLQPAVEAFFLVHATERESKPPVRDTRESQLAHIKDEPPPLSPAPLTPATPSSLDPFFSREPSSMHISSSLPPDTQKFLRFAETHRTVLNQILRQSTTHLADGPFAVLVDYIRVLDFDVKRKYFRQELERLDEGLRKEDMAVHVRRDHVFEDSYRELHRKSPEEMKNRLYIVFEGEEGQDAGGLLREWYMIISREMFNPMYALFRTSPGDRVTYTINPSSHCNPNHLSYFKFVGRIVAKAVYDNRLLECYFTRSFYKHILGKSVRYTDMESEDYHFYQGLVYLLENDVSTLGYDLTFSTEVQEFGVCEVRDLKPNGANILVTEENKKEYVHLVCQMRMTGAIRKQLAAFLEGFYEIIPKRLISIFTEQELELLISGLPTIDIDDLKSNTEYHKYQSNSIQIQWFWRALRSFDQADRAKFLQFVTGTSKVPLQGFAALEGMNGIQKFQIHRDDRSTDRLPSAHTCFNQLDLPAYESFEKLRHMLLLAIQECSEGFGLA
The test is described as above. The note with it: both partners purified.

B1: fluorophor-labeled p14ARF-derived peptide (residues 45–64), TAMRA-labelled (peptide)
peptide: LVLMLLRSQRLGQQPLPRRPK(TAMRA)
notes: p14ARF (alternative reading frame product of CDKN2A), human, residues 45–64; additional lysine residue at the C-terminus that carries the TAMRA label (told in words); also called p14ARF-peptide; p14ARF (45-64); source: synthetic peptide, bought: Elim Biopharm
Turning to B1, the Kd came out at 7.7 ± 0.4 µM in the test with HUWE1 (3759–4374) and 6 ± 1 µM with HUWE1 (3810–4374).

The values are drawn from article PMC5308896, “A conformational switch regulates the ubiquitin ligase HUWE1” (eLife, 2017).
